Test results: patent US20120269815A1, “NEUROTROPHINS AND USES THEREOF” (Regents of the University of Minnesota, priority 2008, published 2012)

How the values were obtained:
[1] = test system: TUF1 expression in adrenal glomerulosa cell dispersion; assay: Angiotensin II stimulation of adrenal glomerulosa cell dispersion (qPCR); assay type: cell-based, rat; settings: overnight incubation, 5-500 ng/mL
Description: Adrenal glands were dissected from adult Sprague-Dawley rats (280 g-300 g) and kept in cold PBS. Following fat removal, adrenal capsules were detached and placed into a few drops of dispersion media (DMEM, 1.0 g/L glucose, 0.32% collagenase (type I, GIBCO, Life Technologies Corp., Carlsbad, Calif.), 4% BSA (Sigma-Aldrich Co., St. Louis, Mo.), 0.1% DNAse (Sigma-Aldrich Co., St. Louis, Mo.). Adrenal capsules were then minced with surgical scissors, transferred to dispersion media and incubated for 90 minutes in a 37° C. and 10% CO2 cell culture incubator with trituration at 15 minute intervals. Dispersed cells were filtered through a 100 μm wire mesh into wash media (DMEM, 0.4% BSA, 0.28% HEPES) and centrifuged at 200×g for 5 minutes. Following supernatant removal, cells were rinsed in wash media and resuspended in incubation media (wash media+7.65 mM CaCl2). Dissociated cells were seeded at 75,000 cells/well in a 24-well plate and incubated at 37° C. and 10% CO2 prior to stimulation. […]
Following overnight incubation, total RNA was isolated from capsular/glomerulosa cells using an RNA-isolation kit (Zymo Research Corp., Orange, Calif.) and concentrations were measured by absorbance at 260 nm ([…]) using a NanoDrop ND-1000 (NanoDrop Technologies, Inc., Wilmington, Del.). […]

p75^NTR = biological target: T1, p75^NTR (Homo sapiens, UniProt P08138); assay: Fluorescence-labeled TUF1 peptide binding to COS7 cells expressing p75NTR; settings: labeled peptide 5 nM, 90 min, COS7 cells transfected with pCMV-SPORT6-p75
T1 construct: host or cells: COS7
T1 sequence (P08138 29-427): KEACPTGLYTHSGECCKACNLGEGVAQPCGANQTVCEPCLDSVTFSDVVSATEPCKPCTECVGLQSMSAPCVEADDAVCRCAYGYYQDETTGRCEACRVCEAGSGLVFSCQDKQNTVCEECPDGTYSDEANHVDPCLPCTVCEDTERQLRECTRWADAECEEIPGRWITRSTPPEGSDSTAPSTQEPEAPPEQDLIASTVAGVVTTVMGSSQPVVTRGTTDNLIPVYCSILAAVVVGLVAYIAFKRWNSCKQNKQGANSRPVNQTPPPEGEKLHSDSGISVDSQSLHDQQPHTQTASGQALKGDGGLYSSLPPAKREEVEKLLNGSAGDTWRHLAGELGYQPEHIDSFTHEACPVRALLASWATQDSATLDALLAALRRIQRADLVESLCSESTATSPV
Description: COS7 cells were seeded at 10,000 cells/well onto a 18 mm coverslip in a 12-well plate. Cells were allowed to settle overnight in a cell culture incubator (NuAire NU-8600, NuAire, Inc., Plymouth, Minn.) set at 37° C. and 5% CO2. Cells were transfected with pCMV-eGFP (Clontech Laboratories, Inc., Mountain View, Calif.) or pCMV-SPORT6-p75 (ATCC) using Fugene HD (Roche Diagnostics Corp., Indianapolis, Ind.) and were incubated overnight. The binding assays were carried out according to Horton et al. with modifications. Synthetic TUF1 peptides (TUF1[43-54] (SEQ ID NO:1) and TUF1[24-40] (SEQ ID NO:3) were generated (via Sigma Genosys, Sigma-Aldrich Co. St. Louis, Mo.) and were conjugated per manufacturer's recommendation with DyLight 549 NHS Ester (Thermo Fisher Scientific, Waltham, Mass.), which have similar spectra to Cy3 dye. Unconjugated dye was removed with a dye removal column (Thermo Fisher Scientific, Waltham, Mass.). Labeled peptides were diluted to 5 nM in 0.15 M Sucrose/PBS and added (1.0 ml/well) to transfected COS7 cells. The binding reaction was incubated in the dark at room temperature for 90 minutes. Cells were rinsed thoroughly with PBS+0.05% Tween-20 to remove unbound peptide. Cells were then fixed with 4% Paraformaldehyde (5 minutes).
Following fixation, cells were permeabilized in PBS+0.1% Tween-20 for 10 minutes, rinsed thoroughly with PBS, and blocked in BSA (10 mg/ml) for 10 minutes. Cells were incubated with rabbit anti-p75^NTR antibody (1:10,000 dilution) for 30 minutes. Excess antibody was removed with PBS washes. Cells were then incubated with Alexa-488 goat anti-rabbit antibody (1:500 dilution, Invitrogen). Cells were again rinsed thoroughly with PBS and mounted in Vectashield mounting media plus DAPI (Vector Laboratories, Inc., Burlingame, Calif.).
COS7 cells were seeded at 10,000 cells/well onto an 18 mm coverslip in a 12-well plate. Cells were allowed to settle overnight in a cell culture incubator (NuAire NU-8600, NuAire, Inc., Plymouth, Minn.) set at 37° C. and 5% CO2. Cells were transfected with pCMV-eGFP (Clontech Laboratories, Inc., Burlingame, Calif.) or pCMV-SPORT6-p75 (ATCC) using Fugene HD (Roche Diagnostics Corp., Indianapolis, Ind.) and were incubated overnight. The binding assays were carried out according to Horton et al. with modifications. Synthetic TUF1 peptides (TUF1[43-54] (SEQ ID NO:1) and TUF1[24-40] (SEQ ID NO:3)) were generated (via Sigma Genosys, Sigma-Aldrich, St. Louis, Mo.) and were conjugated per manufacturer's recommendation with DyLight 549 NHS Ester (Thermo Fisher Scientific Inc., Waltham, Mass.), which have similar spectra to Cy3 dye. Unconjugated dye was removed with a dye removal column (Thermo Fisher Scientific Inc., Waltham, Mass.). Labeled peptides were diluted to 5 nM in 0.15M Sucrose/PBS and added (1.0 ml/well) to transfected COS7 cells. The binding reaction was incubated in the dark at room temperature for 90 min. Cells were rinsed thoroughly with PBS+0.05% Tween-20 to remove unbound peptide. Cells were then fixed with 4% Paraformaldehyde (5 minutes).
Following fixation, cells were permeabilized in PBS+0.1% Tween-20 for 10 minutes, rinsed thoroughly with PBS, and blocked in BSA (10 mg/ml) for 10 minutes. Cells were incubated with rabbit anti-p75^NTR antibody (1:10,000 dilution) for 30 minutes. Excess antibody was removed with PBS washes. Cells were then incubated with Alexa-488-goat anti-rabbit antibody (1:500 dilution, Invitrogen Corp., Carlsbad, Calif.). […]

binding to p75^NTR (p75^NTR) | binding to p75^NTR (p75^NTR; listed as TUF1^24-40) | Substance | TUF1 expression [1]
 |  | Angiotensin II (DRVYIHPF; Angiotensin-2; UniProt P01019 25-32, looked up) [angiotensin II (Sigma-Aldrich) used to stimulate adrenal glomerulosa cells] | activates TUF1 expression
did not bind cells expressing p75^NTR | did not bind the p75^NTR | TUF1[24-40]: synthetic TUF1 peptide, SEQ ID NO:3, without similarity to neurotrophic factors (NGF and BDNF) (GTIKLTPRLSKDAYSEM; Artifical sequence; TUF1 polypeptide) | 
